Source: paper PMC3996161

Biological target: DraIII restriction endonuclease (Deinococcus radiophilus ATCC 27603)
Assay: crystal structure; DraIII incubated 1:1 with an 11-bp phosphorothioate canonical DNA duplex, SEC with 5 mmol/L MgCl2; crystals at 18°C, hanging drop, 0.1 mol/L Tris-Cl, 20% 2-propanol, 5% PEG 8000, pH 8.0; the DNA was not observed in the structure

stoichiometry N: 2
Substance: DraIII restriction endonuclease (enzyme)
